Test results published in patent US12319739 (F STAR DELTA, dated 2025).

T1: cMSLN-His-Avi (cynomolgus, single biotin on the Avi tag in the biotinylated form)
T1 construct: Monomeric; also called cyno MSLN-His-Avi; cMSLN-Avi-His
T1 chain: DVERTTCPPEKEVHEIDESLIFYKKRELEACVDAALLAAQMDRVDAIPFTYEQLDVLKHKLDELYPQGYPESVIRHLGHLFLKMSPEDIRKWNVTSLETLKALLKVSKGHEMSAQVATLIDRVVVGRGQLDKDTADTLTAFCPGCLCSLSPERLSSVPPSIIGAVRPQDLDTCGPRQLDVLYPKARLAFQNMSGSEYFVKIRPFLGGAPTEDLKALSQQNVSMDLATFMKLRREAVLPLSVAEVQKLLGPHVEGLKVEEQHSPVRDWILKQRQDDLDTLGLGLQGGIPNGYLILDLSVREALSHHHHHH


Legend:
hMSLN-His-Avi [1] = molecular target: T2, hMSLN-His-Avi (human, UniProt Q13421 296-598, single biotin on the Avi tag in the biotinylated form); assay: SPR, hMSLN-His-Avi immobilised ~100 RU, mAb2 injected
T2 construct: Monomeric; also called human MSLN-His-Avi; hMSLN-Avi-His
Procedure: (§1) 7.1 Binding of CD137/MSLN mAb2 to Human MSLN Under Avid Conditions—Antigen Capture Method Binding of all mAb^2 to MSLN immobilised on a BIAcore chip was tested to determine the binding affinity to human MSLN under avid conditions, where a high concentration of immobilised antigen is available to allow the antibody to bind avidly. […] The association time was 5 min and the dissociation time was 10 min. Running buffer was HBS-EP (GE Healthcare BR100188). Flow cells were regenerated by injecting Glycine-HCl pH1.5 at a flow rate of 30 μl/min for 30 seconds. Data were analysed by double referencing against a flow cell which was intentionally left blank (no antigen coating). The binding kinetics were fitted with a 1:1 Langmuir model to generate binding association (k_a) and dissociation (k_d) rates. Equilibrium binding constants (K_D) were calculated by dividing the dissociation rate by the association rate for each sample. Data analysis was performed with BiaEvaluation software version 3.2.

[2] = molecular target: T3, endogenous cell surface human MSLN (human, UniProt Q13421 296-598); assay: flow cytometry, NCI-H226 cells
T3 construct: whole, on cells; The cell line is named under assay; also called cell-surface MSLN on NCI-H226, OVCAR-3 and AsPC-1 cells
Procedure: (§2) To confirm binding to cell surface MSLN, mAb² listed in Table 9 were analysed for binding to endogenous cell surface MSLN on the human lung cancer cell line NCI-H226. In addition, and because MSLN can be found in blood in a shed soluble form, there is a risk that this circulating MSLN might affect exposure and ultimately potency of our mAb². To confirm that presence of soluble MSLN has minimal impact, additional binding experiments to NCI-H226 cells were performed in the presence of 20 nM soluble MSLN which is 10-20 times the level of soluble MSLN found to be of diagnostic value for defining malignant mesothelioma and lung cancer patients as MSLN positive (Cui et al., 2014). Briefly, NCI-H226 cells (ATCC CRL-5826) were harvested from T175 cell culture flasks using Accutase (Gibco, A11105-01).
(§3) In both cases, cells were centrifuged at 1200 rpm for 3 min and resuspended in ice cold FACS buffer made up of DPBS (Life Technologies, 14190169) and 1% BSA (Sigma-Aldrich, A7906) at 2×10⁶ cells/ml and 50 μl per well was seeded in a 96-well V-bottom plate (Costar, 3894). All antibodies tested were diluted in FACS buffer in 120 μl at a concentration range of 0.01-200 nM (4-fold dilutions). The NCI-H226 cells were then centrifuged, supernatant removed and cells resuspended in 100 μl of each mAb dilution and incubated at 4° C. for 45 min. Cells were washed twice by centrifugation with 150 μl FACS buffer, resuspended in 100 μl containing goat anti-human IgG (γ-chain specific) F(ab')2 fragment-R-Phycoerythrin antibody (Sigma, P8047) diluted 1:1000 in FACS buffer and incubated at 4° C. for 45 min. The cells were washed once with 150 μl FACS buffer and then with 150 μl DPBS, resuspended in 150 μl DPBS containing DAPI (Biotium, 40043) at 1:10.000 and read on the BDCantoII or iQue (Intellicyt).

hMSLN-His-Avi [3] = molecular target: T2, hMSLN-His-Avi; assay: ratio of SPR KDs
Procedure: as §1
(§4) The association time was 5 min and the dissociation time was 5 min. Running buffer was HBS-EP (GE Healthcare BR100188). Flow cells were regenerated by injecting Glycine-HCl pH2.1 at a flow rate of 30 μl/min for 15 seconds. The data was analysed as described in Example 7.1.

cMSLN-His-Avi = molecular target: T1, cMSLN-His-Avi; assay: SPR, mAb2 captured on Protein G, cMSLN-His-Avi in solution
Procedure: as §4

[4] = molecular target: T3, endogenous cell surface human MSLN; assay: flow cytometry, NCI-H226 cells + 20 nM soluble MSLN
Procedure: as §2, §3

hMSLN-His-Avi [5] = molecular target: T2, hMSLN-His-Avi; assay: SPR, mAb2 captured on Protein G, hMSLN-His-Avi in solution
Procedure: as §4

[6] = molecular target: human CD137 on primary human CD8+ T cells (human, UniProt Q07011 24-255); assay: cell-based or functional assay
human CD137 on primary human CD8+ T cells, sequence (Q07011 24-255): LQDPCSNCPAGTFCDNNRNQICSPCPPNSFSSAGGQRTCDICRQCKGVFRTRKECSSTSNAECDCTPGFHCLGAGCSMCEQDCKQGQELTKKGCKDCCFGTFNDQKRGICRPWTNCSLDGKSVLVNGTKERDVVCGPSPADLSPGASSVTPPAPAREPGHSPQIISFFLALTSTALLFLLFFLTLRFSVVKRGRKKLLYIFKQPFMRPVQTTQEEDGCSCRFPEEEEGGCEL

T3 sequence (Q13421 other isoform, or with tags, fused parts or gaps limits assumed): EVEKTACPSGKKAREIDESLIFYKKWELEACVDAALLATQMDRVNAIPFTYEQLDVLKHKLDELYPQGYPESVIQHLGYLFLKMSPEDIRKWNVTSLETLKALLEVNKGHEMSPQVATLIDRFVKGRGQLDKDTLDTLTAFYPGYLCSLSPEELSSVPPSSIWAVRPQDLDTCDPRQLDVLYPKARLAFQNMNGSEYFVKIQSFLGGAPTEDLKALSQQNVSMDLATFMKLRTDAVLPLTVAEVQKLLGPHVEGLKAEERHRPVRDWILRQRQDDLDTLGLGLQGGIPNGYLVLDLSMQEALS
T2 sequence (Q13421 other isoform, or with tags, fused parts or gaps): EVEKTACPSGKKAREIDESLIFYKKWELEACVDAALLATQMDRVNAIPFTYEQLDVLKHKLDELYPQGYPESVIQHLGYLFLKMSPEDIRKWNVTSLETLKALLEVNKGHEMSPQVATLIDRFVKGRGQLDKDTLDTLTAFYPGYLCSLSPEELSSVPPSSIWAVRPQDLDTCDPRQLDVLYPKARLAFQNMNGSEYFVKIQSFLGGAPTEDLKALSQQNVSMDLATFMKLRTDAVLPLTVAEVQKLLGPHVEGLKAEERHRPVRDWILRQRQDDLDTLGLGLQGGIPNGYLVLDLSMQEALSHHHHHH

Binder | Kd (hMSLN-His-Avi [1]) [nM] | EC50 [2] [nM] | Emax (MFI) [2] [MFI] | KD ratio in solution/immobilised human MSLN (hMSLN-His-Avi [3]) | Kd (cMSLN-His-Avi) [nM] | EC50 [4] [nM] | Emax (MFI) [4] [MFI] | Kd (hMSLN-His-Avi [5]) [nM] | Emax (IL-2 pg/ml), NCI-H226 co-culture, Donor A [6] [pg/mL] | Emax (IL-2 pg/ml), NCI-H226 co-culture, Donor B [6] [pg/mL] | IL-2 release EC50, NCI-H226 co-culture, Donor A [6] [nM] | IL-2 release EC50, NCI-H226 co-culture, Donor B [6] [nM]
FS22-172-003-AA/FS28-185 (bispecific antibody, human IgG1, kappa, L234A L235A, V domains shown, IgG1 mAb^2 with LALA; also called FS28-185 in CD137 mAb^2 format) VH: EVQLLESGGGLVQPGGSLRLSCAASGFTFTTSAMSWVRQAPGKGLEWVSRINPYEGETNYADSVKGRFTISRDNSKNTLYLQMNSLRAEDTAVYYCARGWSIATYYKSAMDYWGQGTLVTVSS VL: EIVLTQSPGTLSLSPGERATLSCRASQSVSSSYLAWYQQKPGQAPRLLIYGASSRATGIPDRFSGSGSGTDFTLTISRLEPEDFAVYYCQQSSYSAPVTFGQGTKVEIKR | 50.5 | 22.9 | 4930 | 5 | 294 | 28.4 | 4930 | 248 | – | – | – | –
FS22-172-003-AA/FS28-024 (bispecific antibody, human IgG1, kappa, L234A L235A, V domains shown, IgG1 mAb^2 with LALA; also called FS28-024 in CD137 mAb^2 format) VH: EVQLLESGGGLVQPGGSLRLSCAASGFTLSYSSMSWVRQAPGKGLEWVSFITPSTGYTHYADSVKGRFTISRDNSKNTLYLQMNSLRAEDTAVYYCARRALTFDYWGQGTLVTVSS VL: EIVLTQSPGTLSLSPGERATLSCRASQSVSSSYLAWYQQKPGQAPRLLIYGASSRATGIPDRFSGSGSGTDFTLTISRLEPEDFAVYYCQQASSYPLTFGQGTKVEIKR | 0.39 | 0.389 | 773000 | 119 | 170 | 3.05 | 792000 | 46.5 | 1120 | 1380 | 0.02 | 0.03
FS22-172-003-AA/FS28-256 (bispecific antibody, human IgG1, kappa, L234A L235A, V domains shown, IgG1 mAb^2 with LALA) VH: EVQLLESGGGLVQPGGSLRLSCAASGFTFTNTYMSWVRQAPGKGLEWVSNISPTYSTTNYADSVKGRFTISRDNSKNTLYLQMNSLRAEDTAVYYCARYNSYQGGLDYWGQGTLVTVSS VL: EIVLTQSPGTLSLSPGERATLSCRASQSVSSSYLAWYQQKPGQAPRLLIYGASSRATGIPDRFSGSGSGTDFTLTISRLEPEDFAVYYCQQSYYYPITFGQGTKVEIKR | 36 | 47.1 | 174000 | 34 | 848 | 52.9 | 200000 | 1210 | 1260 | 8590 | 34 | 22.2
FS22-172-003-AA/FS28-256-005 (bispecific antibody, human IgG1, kappa, L234A L235A, V domains shown, IgG1 mAb^2 with LALA) VH: EVQLLESGGGLVQPGGSLRLSCAASGFTFTETYMSWVRQAPGKGLEWVSNISPTYSTTNYADSVKGRFTISRDNSKNTLYLQMNSLRAEDTAVYYCARYNSYQGGLDYWGQGTLVTVSS VL: EIVLTQSPGTLSLSPGERATLSCRASQSVSSSYLAWYQQKPGQAPRLLIYGASSRATGIPDRFSGSGSGTDFTLTISRLEPEDFAVYYCQQALGYPHTFGQGTKVEIKR | – | 0.729 | 441000 | – | – | 0.856 | 424000 | – | 1100 | – | 1.63 | –
FS22-172-003-AA/FS28-256-018 (bispecific antibody, human IgG1, kappa, L234A L235A, V domains shown, IgG1 mAb^2 with LALA) VH: EVQLLESGGGLVQPGGSLRLSCAASGFTFTQTYMSWVRQAPGKGLEWVSNISPTYSTTNYADSVKGRFTISRDNSKNTLYLQMNSLRAEDTAVYYCARYNAYQIGLDYWGQGTLVTVSS VL: EIVLTQSPGTLSLSPGERATLSCRASQSVSSSYLAWYQQKPGQAPRLLIYGASSRATGIPDRFSGSGSGTDFTLTISRLEPEDFAVYYCQQSYYYPITFGQGTKVEIKR | – | 3.6 | 348000 | – | – | 4.09 | 357000 | – | 1260 | 903 | 3.22 | 3.71

Other lines, results leading:

Kd (hMSLN-His-Avi [1]) [nM] | EC50 [2] [nM] | Emax (MFI) [2] [MFI] | KD ratio in solution/immobilised human MSLN (hMSLN-His-Avi [3]) | Kd (cMSLN-His-Avi) [nM] | EC50 [4] [nM] | Emax (MFI) [4] [MFI] | Kd (hMSLN-His-Avi [5]) [nM] | Emax (IL-2 pg/ml), NCI-H226 co-culture, Donor A [6] [pg/mL] | Emax (IL-2 pg/ml), NCI-H226 co-culture, Donor B [6] [pg/mL] | IL-2 release EC50, NCI-H226 co-culture, Donor A [6] [nM] | IL-2 release EC50, NCI-H226 co-culture, Donor B [6] [nM] | Binder
0.42 | 0.579 | 783000 | 111 | 166 | 2.77 | 788000 | 46.4 | 1010 | 1440 | 0.07 | 0.04 | FS22-172-003-AA/FS28-024-053 (bispecific antibody, human IgG1, kappa, L234A L235A, V domains shown, IgG1 mAb^2 with LALA) VH: EVQLLESGGGLVQPGGSLRLSCAASGFTLSYSSMSWVRQAPGKGLEWVSFITPSTGYTHYADSVKGRFTISRDNSKNTLYLQMNSLRAEDTAVYYCARRALVFDYWGQGTLVTVSS VL: EIVLTQSPGTLSLSPGERATLSCRASQSVSSSYLAWYQQKPGQAPRLLIYGASSRATGIPDRFSGSGSGTDFTLTISRLEPEDFAVYYCQQASSYPLTFGQGTKVEIKR
– | 0.727 | 476000 | – | – | 1.09 | 514000 | – | 1360 | – | 3.58 | – | FS22-172-003-AA/FS28-256-014 (bispecific antibody, human IgG1, kappa, L234A L235A, V domains shown, IgG1 mAb^2 with LALA) VH: EVQLLESGGGLVQPGGSLRLSCAASGFTFTDTYMSWVRQAPGKGLEWVSNISPTYSTTNYADSVKGRFTISRDNSKNTLYLQMNSLRAEDTAVYYCARYNAYAAGLDYWGQGTLVTVSS VL: EIVLTQSPGTLSLSPGERATLSCRASQSVSSSYLAWYQQKPGQAPRLLIYGASSRATGIPDRFSGSGSGTDFTLTISRLEPEDFAVYYCQQSYYYPITFGQGTKVEIKR
0.4 | 0.477 | 768000 | 105 | 153 | 3.06 | 798000 | 42.4 | 1130 | 1800 | 0.08 | 0.04 | FS22-172-003-AA/FS28-024-051 (bispecific antibody, human IgG1, kappa, L234A L235A, V domains shown, IgG1 mAb^2 with LALA) VH: EVQLLESGGGLVQPGGSLRLSCAASGFTLSYSSMSWVRQAPGKGLEWVSFITPSTGYTHYADSVKGRFTISRDNSKNTLYLQMNSLRAEDTAVYYCARRALIFDYWGQGTLVTVSS VL: EIVLTQSPGTLSLSPGERATLSCRASQSVSSSYLAWYQQKPGQAPRLLIYGASSRATGIPDRFSGSGSGTDFTLTISRLEPEDFAVYYCQQASSYPLTFGQGTKVEIKR
